Laboratory results taken from PMC10397247.
Like-named read-outs stand apart in the source and are kept apart here.

Experiments:
Assay in all cases: two-hybrid library CCNG1;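 also: natural log of median RNA to DNA barcode read ratio; higher means stronger binding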
4H3112-bH = molecular target: T1, 4H3112-bH
T1 chain: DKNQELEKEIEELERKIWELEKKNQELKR

4H72-bH = molecular target: T2, 4H72-bH
T2 chain: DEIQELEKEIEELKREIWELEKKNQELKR

4H3189-bH = molecular target: T3, 4H3189-bH
T3 chain: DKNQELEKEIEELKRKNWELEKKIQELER

4H3606-bH = molecular target: T4, 4H3606-bH
T4 chain: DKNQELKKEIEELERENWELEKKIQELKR

4H4001-bH = molecular target: T5, 4H4001-bH
T5 chain: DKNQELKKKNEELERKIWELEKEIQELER

4H462-bH = molecular target: T6, 4H462-bH
T6 chain: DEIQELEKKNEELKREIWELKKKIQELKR

4H3185-bH = molecular target: T7, 4H3185-bH
T7 chain: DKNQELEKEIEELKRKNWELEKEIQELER

4H953-bH = molecular target: T8, 4H953-bH
T8 chain: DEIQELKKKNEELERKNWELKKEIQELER

4H3354-bH = molecular target: T9, 4H3354-bH
T9 chain: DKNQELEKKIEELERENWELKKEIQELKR

4H717-bH = molecular target: T10, 4H717-bH
T10 chain: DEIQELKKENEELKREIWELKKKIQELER

4H338-bH = molecular target: T11, 4H338-bH
T11 chain: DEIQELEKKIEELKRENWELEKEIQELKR

4H967-bH = molecular target: T12, 4H967-bH
T12 chain: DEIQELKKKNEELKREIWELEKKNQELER

4H918-bH = molecular target: T13, 4H918-bH
T13 chain: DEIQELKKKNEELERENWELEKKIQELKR

4H883-bH = molecular target: T14, 4H883-bH
T14 chain: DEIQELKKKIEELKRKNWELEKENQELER

4H607-bA = molecular target: T15, 4H607-bA
T15 chain: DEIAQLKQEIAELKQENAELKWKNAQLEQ

4H3843-bH = molecular target: T16, 4H3843-bH
T16 chain: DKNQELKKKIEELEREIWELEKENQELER

4H3855-bH = molecular target: T17, 4H3855-bH
T17 chain: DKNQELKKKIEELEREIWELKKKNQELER

4H2667-bH = molecular target: T18, 4H2667-bH
T18 chain: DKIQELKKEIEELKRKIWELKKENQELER

4H687-bH = molecular target: T19, 4H687-bH
T19 chain: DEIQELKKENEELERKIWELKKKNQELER

4H3782-bH = molecular target: T20, 4H3782-bH
T20 chain: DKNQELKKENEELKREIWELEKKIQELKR

4H2610-bH = molecular target: T21, 4H2610-bH
T21 chain: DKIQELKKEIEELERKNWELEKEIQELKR

4H908-bH = molecular target: T22, 4H908-bH
T22 chain: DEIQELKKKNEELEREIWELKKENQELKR

4H3427-bH = molecular target: T23, 4H3427-bH
T23 chain: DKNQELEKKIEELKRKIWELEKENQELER

4H370-bH = molecular target: T24, 4H370-bH
T24 chain: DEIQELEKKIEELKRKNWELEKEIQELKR

4H454-bH = molecular target: T25, 4H454-bH
T25 chain: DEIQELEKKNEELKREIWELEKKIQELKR

4H331-bH = molecular target: T26, 4H331-bH
T26 chain: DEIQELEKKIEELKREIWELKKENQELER

4H797-bH = molecular target: T27, 4H797-bH
T27 chain: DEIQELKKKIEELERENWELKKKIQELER

4H1446-bH = molecular target: T28, 4H1446-bH
T28 chain: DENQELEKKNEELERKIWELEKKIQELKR

4H607-bH = molecular target: T29, 4H607-bH
T29 chain: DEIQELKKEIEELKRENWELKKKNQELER

4H568-bH = molecular target: T30, 4H568-bH
T30 chain: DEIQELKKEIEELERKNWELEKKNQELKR

4H949-bA = molecular target: T31, 4H949-bA
T31 chain: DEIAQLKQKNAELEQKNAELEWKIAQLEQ

4H754-bH = molecular target: T32, 4H754-bH
T32 chain: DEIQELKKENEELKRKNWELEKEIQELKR

4H2442-bH = molecular target: T33, 4H2442-bH
T33 chain: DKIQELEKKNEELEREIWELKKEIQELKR

4H1845-bH = molecular target: T34, 4H1845-bH
T34 chain: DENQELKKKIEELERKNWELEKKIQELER

4H4001-bA = molecular target: T35, 4H4001-bA
T35 chain: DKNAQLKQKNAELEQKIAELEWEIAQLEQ

4H2618-bH = molecular target: T36, 4H2618-bH
T36 chain: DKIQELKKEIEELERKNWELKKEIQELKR

4H2729-bH = molecular target: T37, 4H2729-bH
T37 chain: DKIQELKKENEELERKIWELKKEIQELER

4H2576-bH = molecular target: T38, 4H2576-bH
T38 chain: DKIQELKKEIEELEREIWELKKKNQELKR

4H2697-bH = molecular target: T39, 4H2697-bH
T39 chain: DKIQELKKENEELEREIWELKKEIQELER

4H1828-bH = molecular target: T40, 4H1828-bH
T40 chain: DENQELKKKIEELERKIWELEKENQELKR

O12-bA = molecular target: T41, O12-bA
T41 chain: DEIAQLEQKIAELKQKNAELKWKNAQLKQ

O2-bA = molecular target: T42, O2-bA
T42 chain: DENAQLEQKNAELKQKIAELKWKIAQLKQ

O3-bA = molecular target: T43, O3-bA
T43 chain: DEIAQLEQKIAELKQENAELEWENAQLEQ

O9-bA = molecular target: T44, O9-bA; conditions: mean of both orientations
T44 chain: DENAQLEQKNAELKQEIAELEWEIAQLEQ

O7-bA = molecular target: T45, O7-bA
T45 chain: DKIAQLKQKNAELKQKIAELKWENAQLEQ

O6-bA = molecular target: T46, O6-bA
T46 chain: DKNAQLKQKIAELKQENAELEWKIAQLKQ

O5-bA = molecular target: T47, O5-bA
T47 chain: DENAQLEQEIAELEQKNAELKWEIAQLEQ

O16-bA = molecular target: T48, O16-bA
T48 chain: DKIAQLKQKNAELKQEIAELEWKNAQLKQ

O4-bA = molecular target: T49, O4-bA
T49 chain: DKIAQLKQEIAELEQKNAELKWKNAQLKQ

O15-bA = molecular target: T50, O15-bA
T50 chain: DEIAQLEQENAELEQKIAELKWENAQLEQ

O13-bA = molecular target: T51, O13-bA
T51 chain: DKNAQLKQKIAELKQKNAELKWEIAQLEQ

O8-bA = molecular target: T52, O8-bA
T52 chain: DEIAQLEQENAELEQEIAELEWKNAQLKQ

O14-bA = molecular target: T53, O14-bA
T53 chain: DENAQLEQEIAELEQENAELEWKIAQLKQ

O11-bA = molecular target: T54, O11-bA
T54 chain: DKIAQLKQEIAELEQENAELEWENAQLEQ

O10-bA = molecular target: T55, O10-bA
T55 chain: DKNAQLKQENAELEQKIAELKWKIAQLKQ

4H3638-bN = molecular target: T56, 4H3638-bN
T56 chain: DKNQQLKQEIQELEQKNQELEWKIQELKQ

4H570-bN = molecular target: T57, 4H570-bN
T57 chain: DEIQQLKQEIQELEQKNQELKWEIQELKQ

4H619-bN = molecular target: T58, 4H619-bN
T58 chain: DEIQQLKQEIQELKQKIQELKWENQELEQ

4H906-bN = molecular target: T59, 4H906-bN
T59 chain: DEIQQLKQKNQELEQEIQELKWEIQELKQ

4H584-bN = molecular target: T60, 4H584-bN
T60 chain: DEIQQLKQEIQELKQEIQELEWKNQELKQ

4H850-bN = molecular target: T61, 4H850-bN
T61 chain: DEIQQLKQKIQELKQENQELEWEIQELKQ

4H3974-bN = molecular target: T62, 4H3974-bN
T62 chain: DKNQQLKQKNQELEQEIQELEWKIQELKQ

4H3817-bN = molecular target: T63, 4H3817-bN
T63 chain: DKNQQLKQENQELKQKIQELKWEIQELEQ

4H3631-bN = molecular target: T64, 4H3631-bN
T64 chain: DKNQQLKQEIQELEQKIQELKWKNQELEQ

4H3297-bN = molecular target: T65, 4H3297-bN
T65 chain: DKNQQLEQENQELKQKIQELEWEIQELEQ

4H2673-bA = molecular target: T66, 4H2673-bA
T66 chain: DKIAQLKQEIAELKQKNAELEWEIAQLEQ

Binder: DENQELEKKNEELERKIWELEKKIQELKR [4H1446-bH]
- interaction score (4H3112-bH): -0.67
- interaction score (4H72-bH): -0.157
- interaction score (4H3189-bH): -1.86
- interaction score (4H3606-bH): -0.704
- interaction score (4H4001-bH): 1.24
- interaction score (4H462-bH): 0.0836
- interaction score (4H3185-bH): 0.0116
- interaction score (4H953-bH): -0.325
- interaction score (4H3354-bH): 0.818
- interaction score (4H717-bH): -0.635
- interaction score (4H338-bH): 1.17
- interaction score (4H967-bH): 0.346
- interaction score (4H918-bH): -1.41
- interaction score (4H883-bH): 0.0186
- interaction score (4H607-bA): 0.727
- interaction score (4H3843-bH): 1.3
- interaction score (4H3855-bH): 0.34
- interaction score (4H2667-bH): -0.551
- interaction score (4H687-bH): 0.347
- interaction score (4H3782-bH): 0.741
- interaction score (4H2610-bH): 0.669
- interaction score (4H908-bH): -0.161
- interaction score (4H3427-bH): 0.933
- interaction score (4H370-bH): -0.404
- interaction score (4H454-bH): 0.981
- interaction score (4H331-bH): 1.32
- interaction score (4H797-bH): -0.466
- interaction score (4H1446-bH): 0.821
- interaction score (4H607-bH): -0.622
- interaction score (4H568-bH): -2.02
- interaction score (4H949-bA): -2.01
- interaction score (4H754-bH): 0.109
- interaction score (4H2442-bH): 0.731
- interaction score (4H1845-bH): 0.192
- interaction score (4H4001-bA): 2.32
- interaction score (4H2618-bH): -0.314
- interaction score (4H2729-bH): 0.679
- interaction score (4H2576-bH): 0.59
- interaction score (4H2697-bH): 1.08
- interaction score (4H1828-bH): 0.624

Binder: DKNAQLKQENAELEQKIAELKWKIAQLKQ [O10-bA]
- interaction score (O12-bA): -0.395
- interaction score (O2-bA): 1.79
- interaction score (O3-bA): -1.28
- interaction score (O9-bA): 1.74
- interaction score (O7-bA): 0.923
- interaction score (O6-bA): 0.6
- interaction score (O5-bA): -0.944
- interaction score (O16-bA): 0.945
- interaction score (O4-bA): -0.577
- interaction score (O15-bA): 0.0908
- interaction score (O13-bA): 0.636
- interaction score (O8-bA): 0.126
- interaction score (O14-bA): -1.3
- interaction score (O11-bA): 0.88
- interaction score (O10-bA; mean of both orientations): 0.0957

Binder: DKNQQLKQEIQELEQKIQELKWKNQELEQ [4H3631-bN]
- interaction score (4H3638-bN): -1.15
- interaction score (4H570-bN): -1.51
- interaction score (4H619-bN): -0.252
- interaction score (4H906-bN): -0.602
- interaction score (4H584-bN): 0.98
- interaction score (4H850-bN): -1.06
- interaction score (4H3974-bN): -0.31
- interaction score (4H3817-bN): -0.125
- interaction score (4H3631-bN): -0.0832
- interaction score (O10-bA): 0.22

Binder: DENQELKKKIEELERKIWELEKENQELKR [4H1828-bH]
- interaction score (4H3112-bH): 0.767
- interaction score (4H72-bH): 0.102
- interaction score (4H4001-bH): 0.309
- interaction score (4H3185-bH): -0.478
- interaction score (4H953-bH): -0.675
- interaction score (4H3297-bN): -1.01
- interaction score (4H3354-bH): 0.672
- interaction score (4H717-bH): 0.163
- interaction score (4H338-bH): 1.16
- interaction score (4H967-bH): -0.867
- interaction score (4H2673-bA): -3.95
- interaction score (4H918-bH): 0.157
- interaction score (4H883-bH): 0.204
- interaction score (4H3855-bH): 0.0964
- interaction score (4H2667-bH): 1.08
- interaction score (4H687-bH): -0.438
- interaction score (4H3782-bH): 0.484
- interaction score (4H908-bH): -0.285
- interaction score (4H3427-bH): 0.362
- interaction score (4H454-bH): 0.741
- interaction score (4H331-bH): -0.37
- interaction score (4H797-bH): 0.474
- interaction score (4H607-bH): -2.38
- interaction score (4H568-bH): -1.34
- interaction score (4H754-bH): 0.147
- interaction score (4H2442-bH): 0.0564
- interaction score (4H1845-bH): -0.21
- interaction score (4H2618-bH): 0.369
- interaction score (4H2729-bH): -0.147
- interaction score (4H2576-bH): -1.69
- interaction score (4H1828-bH): 0.57
